Molecular target: human factor Xa (human)
Sequence (P00742 41-488): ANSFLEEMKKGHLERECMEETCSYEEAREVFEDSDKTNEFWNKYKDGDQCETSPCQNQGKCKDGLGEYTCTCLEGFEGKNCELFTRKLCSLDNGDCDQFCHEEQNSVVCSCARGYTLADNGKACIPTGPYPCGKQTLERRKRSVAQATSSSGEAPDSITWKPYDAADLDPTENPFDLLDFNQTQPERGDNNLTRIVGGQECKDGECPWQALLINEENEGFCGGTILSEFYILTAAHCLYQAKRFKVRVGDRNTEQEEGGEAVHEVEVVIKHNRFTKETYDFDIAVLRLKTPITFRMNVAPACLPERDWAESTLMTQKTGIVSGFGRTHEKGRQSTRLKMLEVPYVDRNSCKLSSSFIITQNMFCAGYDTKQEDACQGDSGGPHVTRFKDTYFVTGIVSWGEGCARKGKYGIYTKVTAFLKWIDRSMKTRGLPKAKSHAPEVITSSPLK

second-order rate constant of factor Xa inhibition (kapp), with pentasaccharide [M⁻¹ s⁻¹]	Substance
194000	S137A/S380C antithrombin (from UniProt P01008 33-464) (natural protein)
664000	S137A/V375C antithrombin (from UniProt P01008 33-464) (natural protein)
331	S137A/V375C/S380C antithrombin (from UniProt P01008 33-464) (natural protein)
756000	recombinant beta-glycoform S137A antithrombin (from UniProt P01008 33-464) (natural protein)

Source: PMC2697666 (Journal of molecular biology, 2009)
